This note sets out measurements from patent CN114195896A (AQUILARIA SINENSIS QINGSU BIOTECHNOLOGY CO LTD, dated 2022).

Sequences and labels used below:
B1: 16-B7重组抗体 (16-B7 recombinant antibody, VHH fused to hIgG1 Fc) (Fc fusion)
chain: QARFVESGGGLVQSGGSLVLSCTVSDVTLDDYVTAWFRQAPGKEREGVSCISKRNFTSYVDSVKGRFTTSRDITKNTVLLQMNALTPEDTGVYYCATPILPSLAFGEVCSLQTEFRSWGPGTRVTVSS
notes: also called 16-B7纯化重组抗体; 原始序列16-B7; not shown: human IgG1 Fc from the expression vector pcDNA3.1-hIgG1-Fc2
B2: 商业化BCMA抗原蛋白 (ACRO BIOSYSTEMS, 货号BCA-H522y-1mg) (receptor, UniProt Q02223 1-54, looked up)
chain: MLQMAGQCSQNEYFDSLLHACIPCQLRCSSNTPPLTCQRYCNASVTNSVKGTNA
notes: also called 目标抗原BCMA; 靶蛋白BCMA

The target in assay [1] is B2. Kind of assay: SPR, BCMA immobilised on the chip, recombinant antibody as the mobile phase. In general terms: Surface plasmon resonance follows binding to a sensor surface in real time, without labels.
For assay [2], the target named is BCMA expressed on recombinant cells (CHO-BCMA; Nalm6-BCMA-LUC) (UniProt Q02223). Put plainly: flow cytometry on CHO-BCMA cells, purified antibody at 10, 2, 0.4 and 0.08 μg/mL. On the technique in general: In flow cytometry, cells or beads pass a laser one at a time.
The target in assay [3] is T1, 16-B7-HM4人源化重组抗体 (humanised 16-B7-HM4 recombinant antibody, VHH fused to hIgG1 Fc) (human, UniProt P01857-1 99-330 = IgG part, limits assumed).
T1 construct: domain: Fc; also called 人源化重组抗体16-B7-HM4
Kind of assay: SPR, BCMA immobilised on the chip, recombinant antibody as the mobile phase.

T1 sequence (P01857 other isoform, or with tags, fused parts or gaps limits assumed): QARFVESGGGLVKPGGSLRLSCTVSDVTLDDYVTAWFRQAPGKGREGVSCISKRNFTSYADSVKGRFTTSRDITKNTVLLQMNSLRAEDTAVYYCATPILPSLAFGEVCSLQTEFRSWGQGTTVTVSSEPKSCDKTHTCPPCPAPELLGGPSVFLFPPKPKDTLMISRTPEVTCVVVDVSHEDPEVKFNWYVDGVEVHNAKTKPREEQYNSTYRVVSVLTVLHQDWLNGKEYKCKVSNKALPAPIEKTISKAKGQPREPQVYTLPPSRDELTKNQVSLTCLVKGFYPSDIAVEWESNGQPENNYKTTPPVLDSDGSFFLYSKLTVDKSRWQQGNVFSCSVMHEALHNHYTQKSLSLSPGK

With B1, the Kd (as a rule, the free concentration of one partner at which half of the binding sites on the other are occupied at equilibrium, for simple one-to-one binding) in assay [1] was found to be 3.73 nM. The antibody concentration at saturation in assay [2] came out at 2 µg/mL. In the case of B2, the Kd in assay [3] turned out to be 1.06 nM.
